Experimental data published in PMC6854852.

Assays:
[1] = tested on: T1, SAN8-rBraR (unphosphorylated) D96V (Staphylococcus aureus SAN8 (nisin A-resistant mutant of MW2)), ORF:7b46c191; test: EMSA; details: EMSA: 5 ng DIG-labeled DNA, rBraR (given as 50 mM) in DIG Gel Shift Kit 2nd Generation (Roche) buffer, 6% native PAGE; binding temperature and pH not stated …
T1 sequence: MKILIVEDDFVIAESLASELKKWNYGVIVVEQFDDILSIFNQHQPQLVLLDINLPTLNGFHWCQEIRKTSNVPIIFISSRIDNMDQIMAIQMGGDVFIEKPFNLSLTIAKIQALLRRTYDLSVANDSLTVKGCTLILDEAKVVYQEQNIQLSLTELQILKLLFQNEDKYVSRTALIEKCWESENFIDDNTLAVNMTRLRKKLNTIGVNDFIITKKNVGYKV

[2] = tested on: T1, SAN8-rBraR (unphosphorylated) D96V (Staphylococcus aureus SAN8 (nisin A-resistant mutant of MW2)), ORF:7b46c191; test: competition; details: EMSA: 5 ng DIG-labeled DNA, rBraR (given as 50 mM) in DIG Gel Shift Kit 2nd Generation (Roche) buffer, 6% native PAGE; binding temperature and pH not stated …

ATCACTTAGAAAGCACCATTGCTTTTGTCTAATATGTACGATGAATCTGTATCCTCACTCAAAAATCTACTACGTAGCGATAGCTTTCAACTCTGTAAGGTTCAAACATTGAATTGTAAGTTTAGATAAAGGCTACTACTCCAAACATTATTTAAAATGAAATTAAATACAAAAGGAGTGAGACTATGACAATATTATCAGTGCAACATGTTTCAAAAACATACGG (double strand) [vraDE-F1]
binding [1]: binds
binding [2]: binds
